± gives the standard error. Variants at the floor of the assay were thinned out.
B1: glmS ribozyme (parent)
chain: AUAAAAGCGCCAGAACUACAGAAAUGUAGUUGACGAGGAGGAGGUUUAUCGAAUUUUCGGCGGAUGCCUCCAAA

Variants of: B1
Assay: self-cleavage kobs at 2500 uM GlcN6P; higher = faster cleavage; RNA array
Details: with glucosamine-6-phosphate
In short: (§1)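 Tiles bearing barcoded ribozyme variants, transcribed in situ by E. coli RNA polymerase on sequenced MiSeq chips, were imaged over ~14 h at 37 °C using a hybridised Cy3 probe. Glucosamine-6-phosphate was supplied at 40 μM to 10 mM in HEPES/KCl/Mg(OAc)2 buffer. kobs came from one- or two-exponential decay fits to normalised per-tile medians, and weighted Michaelis–Menten fits then provided kcat and KM.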

Row | Variant | self-cleavage kobs at 2500 uM GlcN6P [s⁻¹]
1 | G35C G40U G51A U65G | < 1e-05
2 | C50G A52C U69C C70A | 0.000257 ± 8e-05
3 | U46C G60C C61U | < 1e-05
4 | A36G U45G C67A | < 1e-05
5 | U45C U55A U65C | 4.27e-05 ± 1.2e-05
6 | C34U A48U G59C C68A U69C | < 1e-05
7 | U46G A48G U49G G59A | < 1e-05
8 | A36C G44U C67U | < 1e-05
9 | C34A G51C U54G | < 1e-05
10 | U49G A53G U69G | 4.58e-05 ± 1.6e-05
11 | G41A U47G C70G | 9.9e-05 ± 3.6e-05
12 | G32C C50U C58G | < 1e-05
13 | G37U G60U | < 1e-05
14 | A33G U56G G59C | < 1e-05
15 | G44U A52C U56C G63A C67U | < 1e-05
16 | G32A C58U C68G | 0.000103 ± 3.5e-05
17 | G37U A39G C68G | < 1e-05
18 | A33C U56C G63U | < 1e-05
19 | G38A G41U G43C A53U G59A A64C | < 1e-05
20 | G41C A48U A52C A53U | < 1e-05
21 | U45C U46A | 4.42e-05 ± 1.9e-05
22 | A39G U55G C71U | 0.00336 ± 0.0015
23 | G38C U57G G59A A64G | < 1e-05
24 | A39G A64G U69A | 0.00038 ± 0.00012
25 | G40A U46G U47G | 0.000358 ± 0.00012
26 | C34A U55G A64G | < 1e-05
27 | G38C A48U U57C C67U | < 1e-05

Row | Variant | self-cleavage kobs at 2500 uM GlcN6P [s⁻¹]
28 | U47G G62U G63U U65G | < 1e-05
29 | A33U U46G A48G A64C C70U | < 1e-05
30 | C34A A48C U54A | < 1e-05
31 | U47C C61G | < 1e-05
32 | A36C G37A G51C C61U | < 1e-05
33 | G35A C61U | < 1e-05
34 | G44U G60U C71A | < 1e-05
35 | G44U C50G U56G | < 1e-05
36 | G41U U54G U56G G60A C70A | 7.76e-05 ± 2.1e-05
37 | G37C G38U A42C U45C U46G | < 1e-05
38 | A33C G35A G38C A52U U65C C68G | < 1e-05
39 | A33G U46G C70U | < 1e-05
40 | A39U A48G U57A G60U C70G | < 1e-05
41 | G41U G44U C67U U69G | < 1e-05
42 | G37U A53U U57A | < 1e-05
43 | G32U A42G U55C U56C C58G | 5.49e-05 ± 1.3e-05
44 | C50A U69C | 6.67e-05 ± 2e-05
45 | A33U A64C C70A | < 1e-05
46 | G37A G44A U56C C71A | < 1e-05
47 | G43C U56A G62A | < 1e-05
48 | G40U C58G G60U C68U | < 1e-05
49 | A48G U54G C70U | 0.000276 ± 7.7e-05
50 | U46G C61A | < 1e-05
51 | G35A G40A G66U | < 1e-05
52 | A48U C50U U56C G63A A64C U65A | < 1e-05
53 | G44C U55C C70G | < 1e-05
54 | A42C U46A U56A | < 1e-05

Row | Variant | self-cleavage kobs at 2500 uM GlcN6P [s⁻¹]
55 | G32A G35A C61A G63A C70U | < 1e-05
56 | A42U U47G U69A | 0.0115 ± 0.0021
57 | A52G A53U G66C C67G | < 1e-05
58 | C50U C61U U69A | 0.000118 ± 3.5e-05
59 | A36G G44U A48G C67U C71A | < 1e-05
60 | G40C U45G C58U | < 1e-05
61 | U47A A64U C67G | < 1e-05
62 | C34U C50A C58G G62C | < 1e-05
63 | A42C A48G C50G C61A C70U | < 1e-05
64 | G44U A52G C67U U69G | < 1e-05
65 | G38C C58U G66A | < 1e-05
66 | G32C G44A U45C | < 1e-05
67 | A42C U56G U65C C71U | < 1e-05
68 | G35U G60A C70G | < 1e-05
69 | G40U U49A A64U C70U | < 1e-05
70 | G37U G40A G63A | < 1e-05
71 | A36C G51C C71G | < 1e-05
72 | A33G G35A A36C G41A C61G C68G | < 1e-05
73 | G38U C67G C68U | 0.000248 ± 8.4e-05
74 | G41A U45A C71U | 9.76e-05 ± 2.1e-05
75 | U46C A52C G60U C61U | < 1e-05
76 | U46A A64G G66A C71G | 6.58e-05 ± 2.6e-05
77 | G43U U45C C71G | < 1e-05
78 | A52C U57C G66U | < 1e-05
79 | C34G G35A U49C | < 1e-05
80 | C34A G44U C58G | < 1e-05

Variants of: B1
Assay: self-cleavage kobs at 10000 uM GlcN6P; higher = faster cleavage; RNA array
Details: with glucosamine-6-phosphate
In short: as §1

Row | Variant | self-cleavage kobs at 10000 uM GlcN6P [s⁻¹]
81 | U46C G60C C61U | < 1e-05
82 | U45C U46A | 5.25e-05 ± 1.3e-05
83 | U47C C61G | < 1e-05
84 | A33G U46G C70U | < 1e-05
85 | U46G C61A | < 1e-05
86 | G37U G40A G63A | < 1e-05
87 | A36C G51C C71G | < 1e-05
88 | U46C A52C G60U C61U | < 1e-05
